Source: publication PMC9184524, “Structural Basis for pH-gating of the K^+ channel TWIK1 at the selectivity filter” (Nature Communications, 2022)

Target: the molecule itself
Test: cryo-EM structure; TWIK1 in MSP1D1 nanodiscs (2:1:1 DOPE:POPS:POPC), 20 mM HEPES pH 7.4, 150 mM KCl, 1 mM EDTA; C2 symmetry imposed; homodimer

B1: Rattus norvegicus TWIK1 (natural protein)
chain: MLQSLAGSSCVRLVERHRSAWCFGFLVLGYLLYLVFGAVVFSSVELPYEDLLRQELRKLKRRFLEEHECLSEPQLEQFLGRVLEASNYGVSVLSNASGNWNWDFTSALFFASTVLSTTGYGHTVPLSDGGKAFCIIYSVIGIPFTLLFLTAVVQRVTVHVTRRPVLYFHIRWGFSKQVVAIVHAVLLGFVTVSCFFFIPAAVFSVLEDDWNFLESFYFCFISLSTIGLGDYVPGEGYNQKFRELYKIGITCYLLLGLIAMLVVLETFCELHELKKFRKMFYVKKDKDEDQVHIMEHDQLSFSSITEQAAGLKEEQKQNEPFVASQSPPYEDGSANHSNSLEVLFQ
notes: TWIK1 (K2P1.1, KCNK1), Rattus norvegicus, Uniprot Q9Z2T2, full length; gene codon-optimized for Pichia pastoris; W20-Y281 modeled at pH 5.5, G24-F280 at pH 7.4; linker SNS and the part of the human rhinovirus 3C site (LEVLFQ/GP) left on the C-terminus after cleavage of EGFP-His10; cleaved on the resin with PPX before SEC and nanodisc reconstitution (MSP1D1 at pH 7.4, MSPE3D1 at pH 5.5); also …
  stoichiometry N: 2
